From patent publication US9346871B2, “Engineered CXCL12 alpha locked dimer polypeptide” (The Medical College of Wisconsin, priority 2008, dated 2016)
Entries after “also recorded” stand apart in the source; their conditions may differ. Like-named read-outs stand apart in the source and are kept apart here.

Tests used:
CXCL12-α = molecular target: T1, CXCL12-α (Homo sapiens, UniProt P48061); experiment: Binding of CXCR4 N-terminal p38 peptides to CXCL12-α; details: read-out: apparent Kd
T1 construct: made in house; host or cells: E. coli

[1] = Pulsed-field gradient NMR translational diffusion, CXCL12-α monomer-dimer equilibrium; format: physicochemical; details: 10, 50 and 150 μM protein
Procedure: FIG. 1. […] The lines connecting the cysteines show where the intra- and intermolecular disulfide bonds are. […] Diffusion coefficients (Ds) of wild-type CXCL12 (black circles) in 20 mM sodium phosphate at pH 7.4 plotted versus chemokine concentration. […] D) N-terminal peptides corresponding to the first thirty-eight amino acids of CXCR4 are illustrated.

CXCR4 = molecular target: T2, CXCR4 (Homo sapiens, UniProt P61073); experiment: Ca2+-flux assay of CXCR4 activation in THP-1 cells; format: cell-based
T2 construct: a Ca^2+-flux assay on CXCR4-expressing THP-1 cells; host or cells: THP-1
Description: (§1) The Protein Data Bank (PDB), under accession numbers 2K01, 2K04, 2K03 and 2K05 contain coordinates for these structural models. Restraints employed for structure determination have been deposited in the Biological Magnetic Resonance Bank, accession numbers 15633, 15636, 15635 and 15637. […] THP-1 cells are a CXCR4-expressing monocyte leukemia cell line and were obtained from ATCC.
The inventors monitored activation of CXCR4 using THP-1 cells and a similar Ca^2+-flux assay.

Heparin binding = experiment: Heparin binding
Description: Further, in addition to binding CXCR4, CXCL12 also binds to heparin found in the extracellular matrix on cell surfaces. The inventors have shown that the CXCL12α2 locked dimer of the present invention also binds heparin. Amino acid substitutions in CXCL12, including K24S, K27S, or K24S/K27S can prevent heparin binding and increase the half-life of CXCL12 in vivo; therefore, similar mutations in CXCL12α2 would likely prevent heparin binding and increase the in vivo half-life of the dimer.

THP-1 cells = experiment: Transwell chemotaxis assay of THP-1 cells; format: cell-based
Description: FIG. 5. […] C) Schematic illustration of the bell-shaped profile for CXCL12-α-mediated chemotaxis arising from changes in relative concentrations of chemokine monomer and dimer.
as §1

HIV-1 = details: compared with wild-type chemokine
Description: Certain strains of HIV (X4 or dual tropic) utilize CXCR4 as a co-receptor, and this interaction is critical for fusion of the viral and T cell membranes in the process of HIV entry.

[2] = Ca2+-flux, CXCR4-expressing THP-1 cells

T2 sequence (P61073 whole entry): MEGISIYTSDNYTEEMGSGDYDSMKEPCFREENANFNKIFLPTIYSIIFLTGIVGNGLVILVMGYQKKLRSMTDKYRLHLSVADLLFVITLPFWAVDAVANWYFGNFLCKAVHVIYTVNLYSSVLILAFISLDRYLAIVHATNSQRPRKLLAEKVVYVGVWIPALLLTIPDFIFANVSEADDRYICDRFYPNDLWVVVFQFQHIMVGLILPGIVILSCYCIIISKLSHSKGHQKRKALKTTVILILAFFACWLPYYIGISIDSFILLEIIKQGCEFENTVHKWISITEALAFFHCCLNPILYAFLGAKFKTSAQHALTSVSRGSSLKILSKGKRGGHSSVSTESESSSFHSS
T1 sequence (P48061 22-89 limits assumed): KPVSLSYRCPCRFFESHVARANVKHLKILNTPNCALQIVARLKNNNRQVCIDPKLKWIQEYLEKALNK

Row | Molecule | EC50 (CXCR4; [2]) | further results
1 | CC[C@H](C)[C@H](NC(=O)CNC(=O)[C@H](CCC(=O)O)NC(=O)[C@H](CCSC)NC(=O)[C@H](CO)NC(=O)CN)C(=O)N[C@@H](CO)C(=O)N[C@H](C(=O)N[C@@H](Cc1ccc(OS(=O)(=O)O)cc1)C(=O)N[C@H](C(=O)N[C@@H](CO)C(=O)N[C@@H](CC(=O)O)C(=O)N[C@@H](CC(N)=O)C(=O)N[C@@H](Cc1ccc(OS(=O)(=O)O)cc1)C(=O)N[C@H](C(=O)N[C@@H](CCC(=O)O)C(=O)N[C@@H](CCC(=O)O)C(=O)N[C@@H](CCSC)C(=O)NCC(=O)N[C@@H](CO)C(=O)NCC(=O)N[C@@H](CC(=O)O)C(=O)N[C@@H](Cc1ccc(OS(=O)(=O)O)cc1)C(=O)N[C@@H](CC(=O)O)C(=O)N[C@@H](CO)C(=O)N[C@@H](CCSC)C(=O)N[C@@H](CCCCN)C(=O)N[C@@H](CCC(=O)O)C(=O)N1CCC[C@H]1C(=O)N[C@@H](C)C(=O)N[C@@H](Cc1ccccc1)C(=O)N[C@@H](CCCNC(=N)N)C(=O)N[C@@H](CCC(=O)O)C(=O)N[C@@H](CCC(=O)O)C(=O)N[C@@H](CC(N)=O)C(=O)N[C@@H](C)C(=O)N[C@@H](CC(N)=O)C(=O)N[C@@H](Cc1ccccc1)C(=O)N[C@@H](CC(N)=O)C(=O)N[C@@H](CCCCN)C(=O)O)[C@@H](C)O)[C@@H](C)O)[C@@H](C)CC [p38-sY3] | – | Kd (CXCL12-α): 200 ± 200 nM
2 | CXCL12-α2: covalently locked dimer comprising two CXCL12 L36C/A65C sequences (SEQ ID NO: 1) | – | diffusion coefficient Ds [1]: 1.08-1.09 ×10^−6 cm^2s^−1; CXCR4 functional character (CXCR4; detection of secondary messenger calcium): partial CXCR4 agonist; heparin binding (Heparin binding): binds heparin; chemotactic response (THP-1 cells): failed to attract cells; also recorded: does not chemoattract THP-1 cells; predicted inhibition of HIV-1 entry into human T cells (HIV-1): more effective at lower concentrations
3 | R20A: wild-type CXCL12-α with R20 replaced by alanine (protein) KPVSLSYRCPCRFFESHVAAANVKHLKILNTPNCACQIVARLKNNNRQVCIDPKLKWIQEYLEKCLNK | 4.3 ± 0.6 nM | EC50, CXCR4 activation (CXCR4; [2]): no change in EC50
4 | R47A: CXCL12-α mutant R47A (protein) KPVSLSYRCPCRFFESHVARANVKHLKILNTPNCACQIVARLKNNNAQVCIDPKLKWIQEYLEKCLNK | 14.1 nM | –
5 | K27A: CXCL12-α mutant, alanine at K27 (protein) KPVSLSYRCPCRFFESHVARANVKHLAILNTPNCACQIVARLKNNNRQVCIDPKLKWIQEYLEKCLNK | 10.1 nM | –
6 | H25R: dimerization-impaired, preferentially monomeric CXCL12-α variant (protein, ends and bridges not checked, dimerization-impaired, preferentially monomeric CXCL12-α variant) KPVSLSYRCPCRFFESHVARANVKRLKILNTPNCACQIVARLKNNNRQVCIDPKLKWIQEYLEKCLNK | 5.1 ± 0.9 nM | chemotactic response (THP-1 cells; listed as CXCL12-α (H25R)): induces chemotaxis over a broader range; chemotactic response (THP-1 cells; listed as CXCL12-α(H25R)): promotes cell migration much more strongly than the wild-type chemokine at higher concentrations
7 | R47E: CXCL12-α mutant, arginine 47 replaced by glutamic acid (protein) KPVSLSYRCPCRFFESHVARANVKHLKILNTPNCACQIVARLKNNNEQVCIDPKLKWIQEYLEKCLNK | 654 nM | –
8 | V49A: CXCL12-α mutant V49A (protein) KPVSLSYRCPCRFFESHVARANVKHLKILNTPNCACQIVARLKNNNRQACIDPKLKWIQEYLEKCLNK | 8.6 ± 2.4 nM | –
9 | V39A: CXCL12-α mutant V39A (protein) KPVSLSYRCPCRFFESHVARANVKHLKILNTPNCACQIAARLKNNNRQVCIDPKLKWIQEYLEKCLNK | 27.1 nM | –

Continued by falling EC50 (CXCR4; [2]), values first:

Row | EC50 (CXCR4; [2]) | Molecule | further results
10 | 16.8 nM | K27E: CXCL12-α mutant, glutamic acid at K27 (protein) KPVSLSYRCPCRFFESHVARANVKHLEILNTPNCACQIVARLKNNNRQVCIDPKLKWIQEYLEKCLNK | –
11 | 5 ± 1.1 nM | K64A: CXCL12-α mutant K64A (protein) KPVSLSYRCPCRFFESHVARANVKHLKILNTPNCACQIVARLKNNNRQVCIDPKLKWIQEYLEACLNK | –
12 | 4.3 ± 0.9 nM | R41A: CXCL12-α mutant R41A (protein) KPVSLSYRCPCRFFESHVARANVKHLKILNTPNCACQIVAALKNNNRQVCIDPKLKWIQEYLEKCLNK | –
13 | 4.1 ± 0.1 nM | E60A: CXCL12-α mutant E60A (protein) KPVSLSYRCPCRFFESHVARANVKHLKILNTPNCACQIVARLKNNNRQVCIDPKLKWIQAYLEKCLNK | –
14 | 3.7 ± 0.8 nM | E63A: CXCL12-α mutant E63A (protein) KPVSLSYRCPCRFFESHVARANVKHLKILNTPNCACQIVARLKNNNRQVCIDPKLKWIQEYLAKCLNK | –
